Assay results from PMC13016609, “UV irradiation alters TFAM binding specificity and compaction of DNA”.

Experiments:
[1] = biological target: T1, TFAM (no MTS) (Homo sapiens, UniProt Q00059 43-246); test: fluorescence anisotropy; Hill n 5.06±0.09; FP: 25 mM HEPES, 10 mM Mg(OAc)2, 25 mM NaOAc, 75 mM KOAc, pH 7.5, 1 nM DNA, TFAM 0-15 nM diluted on ice (read temperature not stated); AFM oligos: on ice, 2 min; details: protein: recombinant; label: 5' 6-FAM on strand 1 (FP); blunt
T1 sequence: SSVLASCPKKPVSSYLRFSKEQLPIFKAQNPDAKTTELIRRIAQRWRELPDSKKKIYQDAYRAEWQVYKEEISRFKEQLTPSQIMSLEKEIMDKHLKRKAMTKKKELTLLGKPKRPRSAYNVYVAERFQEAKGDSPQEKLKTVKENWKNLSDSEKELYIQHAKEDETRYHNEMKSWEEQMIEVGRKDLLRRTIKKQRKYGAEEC

[2] = biological target: T1, TFAM (no MTS); test: fluorescence anisotropy; +UVC; Hill n 4.76±0.11; FP: 25 mM HEPES, 10 mM Mg(OAc)2, 25 mM NaOAc, 75 mM KOAc, pH 7.5, 1 nM DNA, TFAM 0-15 nM diluted on ice (read temperature not stated); AFM oligos: on ice, 2 min; details: protein: recombinant; label: 5' 6-FAM on strand 1; blunt
[3] = biological target: T1, TFAM (no MTS); test: fluorescence anisotropy; Hill n 3.04±0.19; FP: 25 mM HEPES, 10 mM Mg(OAc)2, 25 mM NaOAc, 75 mM KOAc, pH 7.5, 1 nM DNA, TFAM 0-15 nM diluted on ice (read temperature not stated); AFM oligos: on ice, 2 min; details: protein: recombinant; label: 5' 6-FAM on strand 1; blunt
[4] = biological target: T1, TFAM (no MTS); test: fluorescence anisotropy; +UVC; Hill n 1.90±0.12; FP: 25 mM HEPES, 10 mM Mg(OAc)2, 25 mM NaOAc, 75 mM KOAc, pH 7.5, 1 nM DNA, TFAM 0-15 nM diluted on ice (read temperature not stated); AFM oligos: on ice, 2 min; details: protein: recombinant; label: 5' 6-FAM on strand 1; blunt
[5] = biological target: T1, TFAM (no MTS); test: fluorescence anisotropy; Hill n 2.63±0.22; FP: 25 mM HEPES, 10 mM Mg(OAc)2, 25 mM NaOAc, 75 mM KOAc, pH 7.5, 1 nM DNA, TFAM 0-15 nM diluted on ice (read temperature not stated); AFM oligos: on ice, 2 min; details: protein: recombinant; label: 5' 6-FAM on strand 1; blunt
[6] = biological target: T1, TFAM (no MTS); test: fluorescence anisotropy; Hill n 3.09±0.11; FP: 25 mM HEPES, 10 mM Mg(OAc)2, 25 mM NaOAc, 75 mM KOAc, pH 7.5, 1 nM DNA, TFAM 0-15 nM diluted on ice (read temperature not stated); AFM oligos: on ice, 2 min; details: protein: recombinant; label: 5' 6-FAM on strand 1; blunt
[7] = biological target: T1, TFAM (no MTS); test: fluorescence anisotropy; +UVC; Hill n 4.38±0.33; FP: 25 mM HEPES, 10 mM Mg(OAc)2, 25 mM NaOAc, 75 mM KOAc, pH 7.5, 1 nM DNA, TFAM 0-15 nM diluted on ice (read temperature not stated); AFM oligos: on ice, 2 min; details: protein: recombinant; label: 5' 6-FAM on strand 1; blunt
[8] = biological target: T1, TFAM (no MTS); test: fluorescence anisotropy; Hill n 2.40±0.43; FP: 25 mM HEPES, 10 mM Mg(OAc)2, 25 mM NaOAc, 75 mM KOAc, pH 7.5, 1 nM DNA, TFAM 0-15 nM diluted on ice (read temperature not stated); AFM oligos: on ice, 2 min; details: protein: recombinant; label: 5' 6-FAM on strand 1; blunt
[9] = biological target: T1, TFAM (no MTS); test: fluorescence anisotropy; +UVC; Hill n 2.20±0.13; FP: 25 mM HEPES, 10 mM Mg(OAc)2, 25 mM NaOAc, 75 mM KOAc, pH 7.5, 1 nM DNA, TFAM 0-15 nM diluted on ice (read temperature not stated); AFM oligos: on ice, 2 min; details: protein: recombinant; label: 5' 6-FAM on strand 1; blunt
[10] = biological target: T1, TFAM (no MTS); test: fluorescence anisotropy; Hill n 2.77±0.17; FP: 25 mM HEPES, 10 mM Mg(OAc)2, 25 mM NaOAc, 75 mM KOAc, pH 7.5, 1 nM DNA, TFAM 0-15 nM diluted on ice (read temperature not stated); AFM oligos: on ice, 2 min; details: protein: recombinant; label: 5' 6-FAM on strand 1; blunt
[11] = biological target: T1, TFAM (no MTS); test: fluorescence anisotropy; +UVC; Hill n 2.18±0.14; FP: 25 mM HEPES, 10 mM Mg(OAc)2, 25 mM NaOAc, 75 mM KOAc, pH 7.5, 1 nM DNA, TFAM 0-15 nM diluted on ice (read temperature not stated); AFM oligos: on ice, 2 min; details: protein: recombinant; label: 5' 6-FAM on strand 1; blunt
[12] = biological target: T1, TFAM (no MTS); test: fluorescence anisotropy; Hill n 2.64±0.22; FP: 25 mM HEPES, 10 mM Mg(OAc)2, 25 mM NaOAc, 75 mM KOAc, pH 7.5, 1 nM DNA, TFAM 0-15 nM diluted on ice (read temperature not stated); AFM oligos: on ice, 2 min; details: protein: recombinant; label: 5' 6-FAM on strand 1; blunt
[13] = biological target: T1, TFAM (no MTS); test: fluorescence anisotropy; +UVC; Hill n 2.61±0.25; FP: 25 mM HEPES, 10 mM Mg(OAc)2, 25 mM NaOAc, 75 mM KOAc, pH 7.5, 1 nM DNA, TFAM 0-15 nM diluted on ice (read temperature not stated); AFM oligos: on ice, 2 min; details: protein: recombinant; label: 5' 6-FAM on strand 1; blunt
[14] = biological target: T1, TFAM (no MTS); test: fluorescence anisotropy; Hill n 2.15±0.24; FP: 25 mM HEPES, 10 mM Mg(OAc)2, 25 mM NaOAc, 75 mM KOAc, pH 7.5, 1 nM DNA, TFAM 0-15 nM diluted on ice (read temperature not stated); AFM oligos: on ice, 2 min; details: protein: recombinant; label: 5' 6-FAM on strand 1; blunt
[15] = biological target: T1, TFAM (no MTS); test: fluorescence anisotropy; +UVC; Hill n 1.81±0.05; FP: 25 mM HEPES, 10 mM Mg(OAc)2, 25 mM NaOAc, 75 mM KOAc, pH 7.5, 1 nM DNA, TFAM 0-15 nM diluted on ice (read temperature not stated); AFM oligos: on ice, 2 min; details: protein: recombinant; label: 5' 6-FAM on strand 1; blunt
[16] = biological target: T1, TFAM (no MTS); test: fluorescence anisotropy; Hill n 2.84±0.14; FP: 25 mM HEPES, 10 mM Mg(OAc)2, 25 mM NaOAc, 75 mM KOAc, pH 7.5, 1 nM DNA, TFAM 0-15 nM diluted on ice (read temperature not stated); AFM oligos: on ice, 2 min; details: protein: recombinant; label: 5' 6-FAM on strand 1; blunt
[17] = biological target: T1, TFAM (no MTS); test: fluorescence anisotropy; +UVC; Hill n 2.27±0.26; FP: 25 mM HEPES, 10 mM Mg(OAc)2, 25 mM NaOAc, 75 mM KOAc, pH 7.5, 1 nM DNA, TFAM 0-15 nM diluted on ice (read temperature not stated); AFM oligos: on ice, 2 min; details: protein: recombinant; label: 5' 6-FAM on strand 1; blunt
[18] = biological target: T1, TFAM (no MTS); test: fluorescence anisotropy; Hill n 3.85±0.49; FP: 25 mM HEPES, 10 mM Mg(OAc)2, 25 mM NaOAc, 75 mM KOAc, pH 7.5, 1 nM DNA, TFAM 0-15 nM diluted on ice (read temperature not stated); AFM oligos: on ice, 2 min; details: protein: recombinant; label: 5' 6-FAM on strand 1 (FP); blunt
[19] = biological target: T1, TFAM (no MTS); test: fluorescence anisotropy; +UVC; Hill n 2.94±0.40; FP: 25 mM HEPES, 10 mM Mg(OAc)2, 25 mM NaOAc, 75 mM KOAc, pH 7.5, 1 nM DNA, TFAM 0-15 nM diluted on ice (read temperature not stated); AFM oligos: on ice, 2 min; details: protein: recombinant; label: 5' 6-FAM on strand 1; blunt

B1: ND4_473 (dsDNA)
DNA 1: CGGCGCAGTCATTCTCATAATCGCCCACGGGCT
DNA 2: AGCCCGTGGGCGATTATGAGAATGACTGCGCCG
Kd [1]: 4.95 ± 0.03 nM

B2: ND4_473 +UVC (dsDNA)
DNA 1: B1 DNA 1
DNA 2: B1 DNA 2
modifications: UVC 1500 J/m2 photolesions (positions undefined)
Kd [2]: 5.36 ± 0.14 nM

B3: ND1_288 (dsDNA)
DNA 1: CTCCACACTAGCAGAGACCAACCGAACCCCCTT
DNA 2: AAGGGGGTTCGGTTGGTCTCTGCTAGTGTGGAG
Kd [3]: 3.41 ± 0.03 nM

B4: ND1_288 +UVC (dsDNA)
DNA 1: B3 DNA 1
DNA 2: B3 DNA 2
modifications: UVC 1500 J/m2 photolesions (positions undefined)
Kd [4]: 6.12 ± 0.22 nM

B5: ND3_92 (dsDNA)
DNA 1: TTAGTAGCTATTACCTTCTTATTATTTGATCTA
DNA 2: TAGATCAAATAATAAGAAGGTAATAGCTACTAA
Kd [5]: 4.53 ± 0.13 nM

B6: ND1_353 40mer (dsDNA)
DNA 1: CACAAACATTATTATAATAAACACCCTCACCACTACAATC
DNA 2: GATTGTAGTGGTGAGGGTGTTTATTATAATAATGTTTGTG
Kd [6]: 5.69 ± 0.15 nM

B7: ND1_353 40mer +UVC (dsDNA)
DNA 1: B6 DNA 1
DNA 2: B6 DNA 2
modifications: UVC 1500 J/m2 photolesions (positions undefined)
Kd [7]: 7.25 ± 0.39 nM

B8: ND1_450 (dsDNA)
DNA 1: ACTCACCCTAGCATTACTTATATGATATGTCTC
DNA 2: GAGACATATCATATAAGTAATGCTAGGGTGAGT
Kd [8]: 4.33 ± 0.17 nM

B9: ND1_450 +UVC (dsDNA)
DNA 1: B8 DNA 1
DNA 2: B8 DNA 2
modifications: UVC 1500 J/m2 photolesions (positions undefined)
Kd [9]: 6.36 ± 0.51 nM

B10: COX2_229 (dsDNA)
DNA 1: GCCCCCATTCGTATAATAATTACATCACAAGAC
DNA 2: GTCTTGTGATGTAATTATTATACGAATGGGGGC
Kd [10]: 3.94 ± 0.03 nM

B11: COX2_229 +UVC (dsDNA)
DNA 1: B10 DNA 1
DNA 2: B10 DNA 2
modifications: UVC 1500 J/m2 photolesions (positions undefined)
Kd [11]: 4.87 ± 0.35 nM

B12: ND2_401 (dsDNA)
DNA 1: CAAATGGGCCATTATCGAAGAATTCACAAAAAA
DNA 2: TTTTTTGTGAATTCTTCGATAATGGCCCATTTG
Kd [12]: 4.36 ± 0.24 nM

B13: ND2_401 +UVC (dsDNA)
DNA 1: B12 DNA 1
DNA 2: B12 DNA 2
modifications: UVC 1500 J/m2 photolesions (positions undefined)
Kd [13]: 6.24 ± 0.15 nM

B14: TRNT_10 (dsDNA)
DNA 1: CTTGTAGTATAAACTAATACACCAGTCTTGTAA
DNA 2: TTACAAGACTGGTGTATTAGTTTATACTACAAG
Kd [14]: 4.24 ± 0.12 nM

B15: TRNT_10 +UVC (dsDNA)
DNA 1: B14 DNA 1
DNA 2: B14 DNA 2
modifications: UVC 1500 J/m2 photolesions (positions undefined)
Kd [15]: 7.79 ± 0.8 nM

B16: ND6_87 (dsDNA)
DNA 1: TTCCTACACTATTAAAGTTTACCACAACCACCA
DNA 2: TGGTGGTTGTGGTAAACTTTAATAGTGTAGGAA
Kd [16]: 5.2 ± 0.32 nM

B17: ND6_87 +UVC (dsDNA)
DNA 1: B16 DNA 1
DNA 2: B16 DNA 2
modifications: UVC 1500 J/m2 photolesions (positions undefined)
Kd [17]: 7.63 ± 0.21 nM

B18: ND1_353 (dsDNA)
DNA 1: ATTATTATAATAAACACCCTCACCACTACAATC
DNA 2: GATTGTAGTGGTGAGGGTGTTTATTATAATAAT
Kd [18]: 7.56 ± 0.34 nM

B19: ND1_353 +UVC (dsDNA)
DNA 1: B18 DNA 1
DNA 2: B18 DNA 2
modifications: UVC 1500 J/m2 photolesions (positions undefined)
Kd [19]: 7.66 ± 0.88 nM
